Broadly, the Kd is the concentration at which binding is half-saturated.

Holding throughout (assay): IEDB peptide-MHC binding, purified MHC/competitive/radioactivity; filed as Kd, often an IC50 or EC50 that approximates it; ≥ and ≤ were set here for values at or beyond the usual limits of such assays
For assay [1], the target named is HLA-A*31:01.
Assay [2] deals with HLA-A*33:01.
The target in assay [3] is HLA-A*68:01.
Assay [4] concerns the target HLA-A*03:01.
In assay [5] the target is HLA-A*11:01.
[6] abbreviates: source organism: Vaccinia virus WR.
[7] abbreviates: source organism: Mammarenavirus whitewaterense.
Where [8] appears, read: source organism: SARS coronavirus Tor2.

HSNLTETFR: the Kd in assay [1] (setting [6]) turned out to be 0.596 nM; in assay [2] (setting [6]), 4.95 nM; in assay [3] (setting [6]) it was 0.414 nM; in assay [4] (setting [6]) it was 112 nM; in assay [5] (setting [6]), 40.6 nM.
In the same order, the values of IIKHIYEQY are 2660 nM, no less than 41600 nM, 2180 nM, 1850 nM and 4140 nM.
In the same order, the values of IIVAGFSGK are 689 nM, 805 nM, 1440 nM, 9.1 nM and 25.4 nM.
In the same order, the values of IMLPESDLDK are 489 nM, no less than 70000 nM, 1670 nM, 609 nM and 393 nM.
For ISIYSRPKIK, the Kd in assay [1] (setting [6]) is 5070 nM; in assay [2] (setting [6]), 8830 nM; in assay [3] (setting [6]) it was 1730 nM; in assay [4] (setting [6]) it was 143 nM; in assay [5] (setting [6]), 1670 nM.
In the same order, the values of ITTLLNETAK are 10700 nM, no less than 20800 nM, 11.4 nM, 10.9 nM and 12.4 nM.
On to KAFKNNLSR, for which the Kd turned out to be 25.4 nM in assay [1] (setting [6]); 4140 nM in assay [2] (setting [6]); 171 nM in assay [3] (setting [6]); 301 nM in assay [4] (setting [6]); 152 nM in assay [5] (setting [6]).
Consider KCFANNQDER, for which the Kd in assay [1] (setting [7]) is 6690 nM; in assay [2] (setting [7]), no less than 70000 nM; in assay [3] (setting [7]), 6890 nM; in assay [4] (setting [7]), no less than 70000 nM; in assay [5] (setting [7]) it was no less than 60300 nM.
Regarding KFLELKRGIY, the Kd in assay [1] (setting [6]) was 22.6 nM; in assay [2] (setting [6]), no less than 70000 nM; in assay [3] (setting [6]), 10900 nM; in assay [4] (setting [6]), 1240 nM; in assay [5] (setting [6]), no less than 69800 nM.
In the same order, the values of KLCKNHAEK are 543 nM, no less than 38700 nM, 986 nM, 13 nM and 19.9 nM.
In the same order, the values of KLFKKTDFK are 8.08 nM, 13900 nM, 6280 nM, 8.46 nM and 8.86 nM.
In the same order, the values of KMSTDNAVY are 9730 nM, no less than 77700 nM, 11600 nM, 43.4 nM and 182 nM.
On to KSLLLLNTR, for which the Kd in assay [1] (setting [6]) stood at 0.627 nM; in assay [2] (setting [6]), 1160 nM; in assay [3] (setting [6]), 16900 nM; in assay [4] (setting [6]), 689 nM; in assay [5] (setting [6]) it was 114 nM.
For KWMLISSELK, the Kd in assay [1] (setting [7]) was found to be 127 nM; in assay [2] (setting [7]) it was 10500 nM; in assay [3] (setting [7]), 891 nM; in assay [4] (setting [7]), 19.9 nM; in assay [5] (setting [7]), 248 nM.
Turning to LFDFVNEKY, the Kd in assay [1] (setting [6]) is no less than 30000 nM; in assay [2] (setting [6]), no less than 77700 nM; in assay [3] (setting [6]) it was no less than 26100 nM; in assay [4] (setting [6]), no less than 78000 nM; in assay [5] (setting [6]), no less than 48700 nM.
As to LFKNVRLLK, the Kd in assay [1] (setting [6]) came out at 185 nM; in assay [2] (setting [6]), 1010 nM; in assay [3] (setting [6]), 2090 nM; in assay [4] (setting [6]), 233 nM; in assay [5] (setting [6]) it was 885 nM.
Consider LIPVSEVLLK, for which the equilibrium dissociation constant (Kd) was no less than 70000 nM in assay [1] (setting [6]); no less than 70000 nM in assay [2] (setting [6]); 1210 nM in assay [3] (setting [6]); 5230 nM in assay [4] (setting [6]); 609 nM in assay [5] (setting [6]).
As for LIVTFRERY, the Kd was determined as 836 nM in assay [1] (setting [6]); 4130 nM in assay [2] (setting [6]); 408 nM in assay [3] (setting [6]); 4680 nM in assay [4] (setting [6]); 187 nM in assay [5] (setting [6]).
As for LLKYAGLTIK, the Kd in assay [1] (setting [6]) was determined as 1610 nM; in assay [2] (setting [6]), 14500 nM; in assay [3] (setting [6]) it was 3150 nM; in assay [4] (setting [6]) it was 10.7 nM; in assay [5] (setting [6]), 162 nM.
In the same order, the values of LMTLDDLAIK are no less than 40700 nM, no less than 20900 nM, 2490 nM, 1670 nM and 478 nM.
With LQFTSLEIPR, the Kd came out at 30.5 nM in assay [1] (setting [8]); 1210 nM in assay [2] (setting [8]); 402 nM in assay [3] (setting [8]); 804 nM in assay [4] (setting [8]); 850 nM in assay [5] (setting [8]).
The matching figures for LSAGVEFLK: 776 nM, 8180 nM, 0.244 nM, 9.41 nM and 0.171 nM.
With MLPESDLDK, the dissociation constant (Kd) in assay [1] (setting [6]) is no less than 36200 nM; in assay [2] (setting [6]) it was no less than 73200 nM; in assay [3] (setting [6]), 1240 nM; in assay [4] (setting [6]), 5640 nM; in assay [5] (setting [6]) it was 2080 nM.

For the origin of these results see the Immune Epitope Database (IEDB).
